Several values for one entry are separate records, joined by “and”; a condition that tells them apart may be missing. Equal values may be shown once.
Tests used:
[1] = system: ubiquitin with C-terminal Asn-Gly-Leu and peptide having N-terminal residues GlyLeu; conditions: comparison value; cited from earlier work
[2] = system: peptide "[…]" (SEQ ID NO: 19); experiment: Peptide cyclization assay of butelase 1; format: biochemical; conditions: butelase 1 extracted from plant, peptide GLPVSTKPVATRNHV
Method: Native and modified amino acids were purchased from Sigma-Aldrich (USA). All peptides used in this manuscript were synthesized in-house using the solid-phase method and HPLC purified. Cyclization assays were performed in 50-μl reaction mixtures containing 20 mM phosphate buffer, ligases (5 to 700 nM) and peptide substrates (10 to 300 μM). Each reaction was performed in triplicate at 37° C. and quenched by adding 5 μl of 1 M HCl solution. The peptides were separated by using a reversed-phase C18 analytical column (150×2.1 mm, Vydac) with a linear gradient from 10% to 50% acetonitrile over 15 min on a Nexera UHPLC system (Shimadzu). For kinetic analysis, the concentrations of WT OaAEP1, mutant OaAEP1, and butelase 1 were fixed at 700 nM, 50 nM, and 20 nM, respectively. The cyclization velocities were calculated by converting the HPLC-peak areas of remained linear precursors or the cyclized products into concentrations. The identity of each HPLC peak was analyzed by MALDI-TOF MS (ABI 4800 MALDI TOF/TOF). […] Comparison for the cyclization efficiency of various OaAEP1 mutants were performed in a volume of 20 μl of the reaction mixture and analyzed by MALDI-TOF MS after 10 mins or 1 hour ligation reaction.
The peptide cyclization activity of mature OaAEP1 was then analyzed using MS and the peptide substrate “[…]” (SEQ ID NO: 18) (FIG. 5A). […]

[3] = system: ubiquitin and SNAP tag protein; experiment: Ligation of two well-folded proteins; format: biochemical
Method: (a) Fluorescence detection using 02 benzylcytosine-Alexa647 of the SNAP protein and SDS PAGE analysis with Comassie blue staining detection of the protein substrate and ligated products. The reaction is schematically depicted as inset. Cys247Ala ligates well folded protein well. […] (b) As little as 30 nM Cys247Ala catalyze ligation of 100 μM Ubiquitin and 500 μM biotin labelled peptide efficiently in 30 min, at room temperature, in pH 7.4 PBS buffer.
The ability of Cys247Ala to ligate ubiquitin with a peptide was first tested. The three residues“Asn-Gly-Leu” were added to the C-terminus of ubiquitin to make it recognizable by Cys247Ala. Another peptide having N-terminal residues GlyLeu was used as the add-on component. At a protein: peptide molar ratio of 1:5, Cys247Ala catalyzed the ligation of more than 90% ubiquitin with the peptide within 10 min (FIG. 6). An amount of 30 nM of Cys247Ala was enough for the reaction compared to 10-30 μM of sortase A typically required to perform productive ligations. […] Ubiquitin having the same “Asn-Gly-Leu” modification at its C-terminal end and a N-terminal modified SNAP (NEB) tag protein were used as substrates. […] Protein ligation can be performed within minutes at neutral pH and at room temperature.

[4] = system: peptide substrate "[…]" (SEQ ID NO: 18); experiment: Peptide cyclization assay, kinetic analysis (HPLC/MS); format: biochemical; conditions: cyclization of GLPVSTKPVATRNGL, 37° C., enzyme 700 nM
Method: Native and modified amino acids were purchased from Sigma-Aldrich (USA). All peptides used in this manuscript were synthesized in-house using the solid-phase method and HPLC purified. Cyclization assays were performed in 50-μl reaction mixtures containing 20 mM phosphate buffer, ligases (5 to 700 nM) and peptide substrates (10 to 300 μM). Each reaction was performed in triplicate at 37° C. and quenched by adding 5 μl of 1 M HCl solution. The peptides were separated by using a reversed-phase C18 analytical column (150×2.1 mm, Vydac) with a linear gradient from 10% to 50% acetonitrile over 15 min on a Nexera UHPLC system (Shimadzu). For kinetic analysis, the concentrations of WT OaAEP1, mutant OaAEP1, and butelase 1 were fixed at 700 nM, 50 nM, and 20 nM, respectively. The cyclization velocities were calculated by converting the HPLC-peak areas of remained linear precursors or the cyclized products into concentrations. The identity of each HPLC peak was analyzed by MALDI-TOF MS (ABI 4800 MALDI TOF/TOF). The velocities were input into GraphPad Prism (GraphPad Software, San Diego) to obtain the Michaelis-Menten curve and the kinetic parameters (kcat and Km). Comparison for the cyclization efficiency of various OaAEP1 mutants were performed in a volume of 20 μl of the reaction mixture and analyzed by MALDI-TOF MS after 10 mins or 1 hour ligation reaction.
The peptide cyclization activity of mature OaAEP1 was then analyzed using MS and the peptide substrate “[…]” (SEQ ID NO: 18) (FIG. 5A). The turn-over rate (kcat) for OaAEP1 is 0.052 s^−1, a value in good agreement with the previous report (Harris, K. S., et al., Nat Commun, 2015. 6: p. 10199). Likewise, the cyclization activity of butelase 1 extracted from plant was measured using the 15 residues peptide “[…]” (SEQ ID NO: 19) (FIG. 5A) leading to a kcat about 90 times faster than OaAEP1 b.

[5] = system: OaAEP1; experiment: Self-activation (acid-induced self-cleavage) of OaAEP1 and mutants, SDS PAGE; format: biochemical, Oldenlandia affinis; conditions: activation for 3 hours
Method: To self-activate OaAEP1, 1 mM EDTA and 0.5 mM Tris (2-carboxyethyl) phosphine hydrochloride were added to the immature protein and the pH of the solution was adjusted to 4 with glacial acetic acid. Fractions containing the protein (as analyzed by SDS-PAGE) were pooled and then incubated for 3 to 16 hours at room temperature or 37° C. Protein precipitation at this pH allowed removal of the bulk of the contaminating proteins by centrifugation. Activated proteins were concentrated by ultracentrifugation using a 50 kDa cutoff concentrator (Sartorius) and stored at −80° C.
OaAEP1 was cloned and expressed in E. coli as an ubiquitin fusion protein as reported earlier (FIG. 2) (Harris, K. S., et al., Nat Commun, 2015. 6: p. 10199). Using ion exchange and size exclusion chromatography (SEC), sufficient amounts of pure protein suitable for enzymatic and structural analysis were obtained (FIG. 2B). At the neutral pH of purification (pH=7.4), OaAEP1 was mainly present as a heterodimer, where both monomers are in their zymogenic form, but only one monomer had retained in addition the ubiquitin and N-terminal His-tag, while the fusion moiety was cleaved in the other monomer (labeled as “His-Ub-AEP-FL” and “AEP-FL” in FIG. 2B and FIG. 2C). This heterodimer was subjected to crystallization trials for structural studies (see below). In agreement with reference (Harris, K. S., et al., Nat Commun, 2015. 6: p. 10199), activation of OaAEP1 was optimum for pH values in the range of 3.4-4.0 (FIG. 2D). Following activation, OaAEP1 converts to a monomer in solution according to SEC analysis (“AEP-holo” in FIG. 2C). To test the ability of the protein to be activated in trans, the catalytic residue Cys217 was mutated into Ser217.
Since the crystallization conditions are compatible with OaAEP1 activation, the present crystal structure is likely to have captured one of the conformational states occurring along the activation pathway. To determine whether Gln347 belongs to the segment recognized and cleaved during self-activation, mutagenesis experiments targeting region 346-351 of the OaAEP1 protein were performed (FIG. 4C). The role of Gln347 in OaAEP1 auto-activation was particularly assessed by mutating this residue to Ala, and whether enzyme activation was abolished was examined. Only little impact was found on the mutant enzyme activation (FIG. 4C). Residues Asn346, Asp349 and Asp351 that are next to Gln347 were then targeted. […] Thus, trans-activation requires the presence of at least one of the four Asx/Gln residues (with a slight preference for Asp349 or Asp351) found in this segment of the linker.

Chain of ubiquitin with C-terminal Asn-Gly-Leu and peptide having N-terminal residues GlyLeu (as listed by the source): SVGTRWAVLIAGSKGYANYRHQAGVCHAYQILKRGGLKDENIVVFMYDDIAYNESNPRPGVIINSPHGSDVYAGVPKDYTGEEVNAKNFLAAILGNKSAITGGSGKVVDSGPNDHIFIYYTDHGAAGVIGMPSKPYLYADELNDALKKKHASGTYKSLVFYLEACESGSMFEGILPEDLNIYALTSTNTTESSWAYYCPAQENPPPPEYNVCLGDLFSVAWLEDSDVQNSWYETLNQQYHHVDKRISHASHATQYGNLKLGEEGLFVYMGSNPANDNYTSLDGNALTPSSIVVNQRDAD

B1: sortase A: bacterial sortase commonly used to catalyze transpeptidation reactions; recognizes LPXTG (protein, UniProt Q2FV99 1-206, looked up)
Sortase A: MKKWTNRLMTIAGVVLILVAAYLFAKPHIDNYLHDKDKDEKIEQYDKNVKEQASKDKKQQAKPQIPKDKSKVAGYIEIPDADIKEPVYPGPATPEQLNRGVSFAEENESLDDQNISIAGHTFIDRPNYQFTNLKAAKKGSMVYFKVGNETRKYKMTSIRDVKPTDVGVLDEQKGKDKQLTLITCDDYNEKTGVWEKRKIFVATEVK
amount of enzyme typically required to perform productive ligations [1]: 10 to 30 µM

B2: butelase 1: AEP1 from Clitoria ternatea, Asx peptide ligase extracted from plant, SEQ ID NO:4 (protein, listed as Clitoria ternatea)
chain: IRDDFLRLPSQASKFFQADDNVEGTRWAVLVAGSKGYVNYRHQADVCHAYQILKKGGLKDENIIVFMYDDIAYNESNPHPGVIINHPYGSDVYKGVPKDYVGEDINPPNFYAVLLANKSALTGTGSGKVLDSGPNDHVFIYYTDHGGAGVLGMPSKPYIAASDLNDVLKKKHASGTYKSIVFYVESCESGSMFDGLLPEDHNIYVMGASDTGESSWVTYCPLQHPSPPPEYDVCVGDLFSVAWLEDCDVHNLQTETFQQQYEVVKNKTIVALIEDGTHVVQYGDVGLSKQTLFVYMGTDPANDNNTFTDKNSLGTPRKAVSQRDADLIHYWEKYRRAPEGSSRKAEAKKQLREVMAHRMHIDNSVKHIGKLLFGIEKGHKMLNNVRPAGLPVVDDWDCFKTLIRTFETHCGSLSEYGMKHMRSFANLCNAGIRKEQMAEASAQACVSIPDNPWSSLHAGFSV
kcat relative to OaAEP1b [2]: about 90 times

B3: OaAEP1: wild type asparaginyl endopeptidase from Oldenlandia affinis, SEQ ID NO:3, weak peptide cyclase (protein, listed as Ovaloparmena affinis)
chain: MVRYLAGAVLLLVVLSVAAAVSGARDGDYLHLPSEVSRFFRPQETNDDHGEDSVGTRWAVLIAGSKGYANYRHQAGVCHAYQILKRGGLKDENIVVFMYDDIAYNESNPRPGVIINSPHGSDVYAGVPKDYTGEEVNAKNFLAAILGNKSAITGGSGKVVDSGPNDHIFIYYTDHGAAGVIGMPSKPYLYADELNDALKKKHASGTYKSLVFYLEACESGSMFEGILPEDLNIYALTSTNTTESSWCYYCPAQENPPPPEYNVCLGDLFSVAWLEDSDVQNSWYETLNQQYHHVDKRISHASHATQYGNLKLGEEGLFVYMGSNPANDNYTSLDGNALTPSSIVVNQRDADLLHLWEKFRKAPEGSARKEEAQTQIFKAMSHRVHIDSSIKLIGKLLFGIEKCTEILNAVRPAGQPLVDDWACLRSLVGTFETHCGSLSEYGMRHTRTIANICNAGISEEQMAEAASQACASIP
protein ligation activity (control ligation experiments) [3]: but not with the OaAEP1 wild type construct
ligation of SNAP tag protein with Ubiquitin ([3]; 5 μM SNAP tag, 100 nM Cys247Ala, 4000 nM wild type OaAEP1b): not
turn-over rate (kcat) [4]: 0.052 s⁻¹
pH optimum of activation [5]: 3.4-4.0 pH and 3.4 to 4 pH
